# Measured values reported in patent US8431396B2, “Anti-angiogenic peptides” (The Cleveland Clinic Foundation, priority 2003, dated 2013).
# B1: mutant TIMP3: Sorsby fundus dystrophy-related S156C mutant TIMP3 expressed in PAEKDR endothelial cells (protein)
# chain: CTCSPSHPQDAFCNSDIVIRAKVVGKKLVKEGPFGTLVYTIKQMKMYRGFTKMPHVQYIHTEASESLCGLKLEVNKYQYLLTGRVYDGKMYTGLCNFVERWDQLTLSQRKGLNYRYHLGCNCKIKSCYYLPCFVTSKNECLWTDMLSNFGYPGYQCKHYACIRQKGGYCSWYRGWAPPDKSIINATDP
# Columns and labels:
# VEGFR-2 (KDR) = target: T1, VEGFR-2 (KDR) (Homo sapiens, UniProt P35968); experiment: [125I]VEGF binding in transfected PAEKDR cell lines; details: PAEKDR cells expressing mutant TIMP3 vs vector
# T1 construct: To determine whether these receptor isoforms represent full-length VEGFR-2; expressed in transfected cells; host or cells: porcine aortic endothelial (PAE) cells
# Protocol: PAEKDR cells were transfected with TIMP3 cDNA or empty vector using Lipofectamine reagent (Gibco-BRL Rockville, Md.). Stable clones were isolated using Hygromycin selection.
# After washing, the cell monolayers were solubilized with lysis buffer (20 mM Tris HCl pH 7.5, 1% triton X 100 and 10% glycerol), and the radioactivity measured in a gamma counter.
# KDR = target: T2, KDR (Homo sapiens, UniProt P35968); experiment: VEGF-stimulated KDR tyrosine phosphorylation in membrane fractions (Western blot); format: cell-based; details: mutant cells; data not shown
# T2 construct: To determine whether these receptor isoforms represent full-length VEGFR-2; expressed in transfected cells; host or cells: porcine aortic endothelial (PAE) cells
# Protocol: 2 day serum free conditioned medium (CM) was collected from subconfluent cells cultured on six-well plates (Costar). In some cases the CM was further concentrated with heparin-agarose gels (Bio-rad). The cell monolayer was dislodged from the culture plates following a 10 min incubation in Ca2+, Mg2+ free phosphate buffered saline (PBS) containing 2.5 mM EDTA. After several rinses in PBS and water, the ECM was scraped in a small volume of electrophoresis sample buffer without reducing agent for analyses. Plasma membrane (PM) fractions were prepared from cells centrifuged at 500 g and 4° C. for 5 min The supernatant was discarded and the cell pellets were resuspended in PBS containing protease inhibitors, lysed with a 26-gauge syringe needle, and centrifuged at 3,000 g at 4° C. for 15 minutes. The supernatant was centrifuged at […] at 4° C. for 1 hr. The PM pellets were suspended in lysis buffer containing protease inhibitors. In some instances the membrane fraction of cells was prepared using ProteoExtract Subcellular Proteome Extaction Kit (EMD Biosciences, Inc).
# Cell fractions or immunoprecipitates of the lysates with the indicated antibodies were subjected to SDS-PAGE. Proteins were detected with either a HRP-conjugated anti-rabbit or anti mouse IgG antibody (Amersham Pharmacia Biotech., Piscataway, N.J.) followed by ECL. […]
# soluble VEGFR-2 = experiment: Soluble VEGFR-2 (sKDR) in conditioned medium (ELISA); format: cell-based, human; details: mutant cells; data not shown
# [1] = system: ERK1 (p44) and ERK2 (p42); experiment: VEGF-stimulated ERK1/2 phosphorylation in transfected PAEKDR cells (Western blot); format: cell-based; details: mutant cells; data not shown
# Protocol: Cell fractions or immunoprecipitates of the lysates with the indicated antibodies were subjected to SDS-PAGE. Proteins were detected with either a HRP-conjugated anti-rabbit or anti mouse IgG antibody (Amersham Pharmacia Biotech., Piscataway, N.J.) followed by ECL. The blots were restripped with Western ReProbe™ solution (Genotech) for 30 minutes and reprobed as indicated.
# Activation of MAP kinase is a known activated VEGFR-2 downstream signaling event. We measured the phosphorylation of two MAP kinases, ERK1 (p44) and ERK2 (p42) by western blot analysis of membrane fractions in WT and mutant ECs.
# MMPs = experiment: Reverse zymography of ECM and CM of transfected PAEKDR cells; format: biochemical; details: PAEKDR cells expressing WT or mutant TIMP3
# Protocol: Conditioned medium, cell lysates and ECM fractions from transfected cells were prepared as described previously (Qi et al., 2002). Equal amounts of protein were loaded onto a 12% gel with 1 mg/ml gelatin plus RPE cell-conditioned media, as a source of MMPs, for reverse zymography and processed as described previously (Pavloff et al., 1992).
# PAEKDR cells [2] = experiment: VEGF-stimulated migration (modified Boyden chamber) of transfected PAEKDR cells; format: cell-based, porcine; details: VEGF 50 ng/ml
# Protocol: A modified Boyden chamber assay was carried out as described previously 34. Briefly, 8.0 μm pore PVPF polycarbonate membranes were pre-coated with 100 μg/ml collagen type I in 0.2 N acetic acid (Cohesion technologies, INC. Pala Alto, Calif.). […] Chamber was then incubated for 4 hrs at 37° C. in a 5% CO2 humidified incubator. Cells remaining on the top of the filter were removed. Cells on the bottom surface of the filter were fixed, stained and mounted. The number of migrating cells per well was counted microscopically.
# PAEKDR cells [3] = experiment: VEGF-stimulated actin reorganization / membrane ruffles; format: cell-based, porcine; details: 50 ng/ml VEGF for 15 min
# Protocol: (§1) For immunostaining, subconfluent cells cultured on Falcon cultureslides (BD, Biosciences) were used. For surface KDR detection, cells were fixed in 1% paraformaldehyde for 10 min at 4° C. Following blocking with 1% BSA cells were incubated with anti-extracellular VEGFR-2 monoclonal antibody for 1 h at room temperature. Surface KDR was detected with biotinylated anti-mouse […] (1:1000) and Texas Red avidin D (1:1500) using standard procedures. […] The cells were fixed with 3.7% paraformaldehyde in PBS for 30 min at 4° C. and permeabilized with 0.2 Triton X-100 for 20 min at room temperature. Following rinsing with PBS the cells were incubated with fluorescein isothiocyanate (FITC)-labeled phalloidin in PBS (0.66 μg/ml, Sigma) for 20 min at room temperature washed with PBS and analyzed by fluorescence microscopy.
# PAEKDR cells [4] = experiment: Tube formation assay in type 1 collagen gels; format: cell-based, porcine; details: 50 ng/ml VEGF; three-dimensional collagen gels
# Protocol: Type 1 collagen was mixed with 10×DMEM and 0.1 M NaOH (8:1:1), adjusted to a solution containing 10 μg/ml growth factor reduced matrigel matrix (BD, Biosciences), and then distributed in 48-well dishes. […] After 4 h of incubation at 37° C., a second layer of collagen was added, and cultures were kept under the same conditions as above described. Tube formation was examined using a phase-contrast microscopy at the indicated time points.
# surface KDR = experiment: Surface KDR immunofluorescence staining; format: cell-based; details: clone KDR-2 antibody; data not shown
# Protocol: as §1
# T1 sequence (P35968 20-1356): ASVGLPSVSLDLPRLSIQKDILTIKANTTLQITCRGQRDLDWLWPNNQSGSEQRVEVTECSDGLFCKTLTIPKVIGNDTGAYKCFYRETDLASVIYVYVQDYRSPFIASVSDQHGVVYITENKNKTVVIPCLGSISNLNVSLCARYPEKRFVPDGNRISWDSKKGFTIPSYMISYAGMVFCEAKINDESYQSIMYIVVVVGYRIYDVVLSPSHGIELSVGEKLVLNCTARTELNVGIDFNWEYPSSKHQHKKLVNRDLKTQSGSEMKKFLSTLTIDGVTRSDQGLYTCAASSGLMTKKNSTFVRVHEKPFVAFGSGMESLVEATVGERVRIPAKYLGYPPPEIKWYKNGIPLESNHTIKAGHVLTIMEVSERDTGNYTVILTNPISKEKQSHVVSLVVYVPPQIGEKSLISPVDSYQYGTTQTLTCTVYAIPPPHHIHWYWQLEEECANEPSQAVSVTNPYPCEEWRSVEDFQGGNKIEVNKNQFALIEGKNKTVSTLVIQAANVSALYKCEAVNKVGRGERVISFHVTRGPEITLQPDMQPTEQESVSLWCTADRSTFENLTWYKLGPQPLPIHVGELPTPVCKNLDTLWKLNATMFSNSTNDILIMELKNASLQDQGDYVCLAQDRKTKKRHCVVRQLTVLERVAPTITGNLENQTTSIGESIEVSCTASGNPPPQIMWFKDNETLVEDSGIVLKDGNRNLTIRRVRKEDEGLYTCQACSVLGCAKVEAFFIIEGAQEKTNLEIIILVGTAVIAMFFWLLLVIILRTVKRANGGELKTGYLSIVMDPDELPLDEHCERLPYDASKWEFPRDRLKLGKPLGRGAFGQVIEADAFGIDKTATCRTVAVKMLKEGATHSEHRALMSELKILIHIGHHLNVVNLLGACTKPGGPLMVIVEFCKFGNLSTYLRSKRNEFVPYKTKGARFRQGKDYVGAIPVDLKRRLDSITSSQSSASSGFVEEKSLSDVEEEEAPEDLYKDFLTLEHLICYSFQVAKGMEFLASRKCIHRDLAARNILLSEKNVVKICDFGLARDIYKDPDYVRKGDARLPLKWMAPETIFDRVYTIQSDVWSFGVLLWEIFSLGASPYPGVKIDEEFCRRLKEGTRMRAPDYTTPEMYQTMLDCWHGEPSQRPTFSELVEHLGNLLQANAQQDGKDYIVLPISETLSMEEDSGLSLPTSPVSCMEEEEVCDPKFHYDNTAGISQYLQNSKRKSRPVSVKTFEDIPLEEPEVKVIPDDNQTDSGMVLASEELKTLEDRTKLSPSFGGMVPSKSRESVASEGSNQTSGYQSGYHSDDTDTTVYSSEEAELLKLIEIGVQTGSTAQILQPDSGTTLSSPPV
# T2 sequence (P35968 20-1356): as above
molecule,measurement,setting,value
B1,increase in [125I] VEGF binding,VEGFR-2 (KDR),2-3 fold
same,level of phosphorylated KDR after VEGF stimulation vs mock cells,KDR,~2 fold
same,"cleaved sVEGFR-2 in the CM, more than mock cells",soluble VEGFR-2,7- to 8 fold
same,increase of VEGF-stimulated ERK1/2 phosphorylation,[1],2-3 fold
same,MMP inhibitory activity in ECM and CM (reverse zymography),MMPs,minimal MMP inhibitory activity
same,VEGF-stimulated migration of cells expressing TIMP3 variant,PAEKDR cells [2],accentuated migratory response towards VEGF
same,VEGF-stimulated formation of membrane ruffles,PAEKDR cells [3],a majority of mutant cells showed more striking edge ruffles
same,VEGF-stimulated tube formation,PAEKDR cells [4],"forming extensive tubular networks, but by day 5 the tubular structures started to regress and collapse"
same,surface KDR labeling relative to empty vector or WT-TIMP3 cells,surface KDR,increased fluorescent labeling for surface KDR
